# US20190177434A1
# Target: Human IgG, Fc fragment (human)
# Assay: method not given
row,Binder,Ka
1,IgG-Fc-13 (VHH) VHH: QVQLQESGGGLVQAGGSLRLSCAASGDTFSTYAMGWFRQAPGKEREFVGRIVRGTESTYLIDSVKGRFAISRDNAQNTVYLQMTSLKPEDTAVYFCVARSFGAGQWDYWGQGTQVTVSS,> 4e+09 M⁻¹
2,IgG-Fc-11 (VHH) VHH: QVQLQESGGGLVQAGGSLRLSCAVSGRTFSTYAMGWFRQAPGKEREFVGSANWKSGSTYLVDSVKGRFTISGDNAHDTVHLQMTSLKPEDTGVYFCVARSFGTGQWDYWGQGTQVTVSS,> 4e+09 M⁻¹
3,IgG-Fc-12 (VHH) VHH: QVQLQESGGGLVQAGGSLRLSCAVSGRTFSTYAMGWFRQAPGKEREFVGSINFKSGSIYLADSVKGRFTISGDNAQNTAYLQMTSLKPEDTAVYLCVARSFGTGQWDYWGQGTQVTVSS,> 4e+09 M⁻¹

# Results, then the binder that gave them:
row,Ka,Binder
1,> 4e+09 M⁻¹,IgG-Fc-15 (VHH) VHH: QVQLQESGGGLVQAGGSLRLSCAVSGRGFSTYAMGWFRQAPGKEREFVGSANWKSGSIYVADSVKGRFTISNDNAQNTVYLQMSSLKPEDTAVYYCVARSFGTGQWDYWGQGTQVTVSS
2,> 4e+09 M⁻¹,IgG-Fc-14 (VHH) VHH: QVQLQESGGGLVQTGGSLRLSCSASGGTFETYAMGWFRQAPGKEREFVGSTNWKSERTYVADSVKGRFTISRDNGQYTAYLQMTSLKPEDTAVYFCVARSFGTGQWDYWGQGTQVTVSS
